According to patent US10801046B2, “Methods and materials for biosynthesizing multifunctional, multivariate molecules via carbon chain modification” (INVISTA NORTH AMERICA S.A.R.L., priority 2016, dated 2020):

Legend:
Assay type in all cases: cell-based, Escherichia coli
[1] = tested on: heptanedioyl-ACP; settings: top 150 hits screened in vivo
[2] = tested on: heptanedioyl-ACP methyl ester
[3] = In vivo carboxylate reductase screening, substrate consumption by LC-MS, heptanedioate; settings: 541 enzymes screened in vivo
Procedure: To screen carboxylate reductases in vivo, […] T7- pUC expression vectors was co-transformed into T7 Express lysY/Iq with the phosphopantetheinyl transferase sfp from Bacillus subtilis on a T7-pCDF expression vector. Biological duplicates of the resulting strains were incubated in 0.5 mL of terrific broth containing either 1 g/L heptanedioate or 1 g/L monomethyl heptanedioate and supplemented with 0.4 mM IPTG in 96-well deep well plates. The plates were incubated for 30 h at 30° C. in a shaking incubator. The cells were then pelleted, and culture supernatants from the same strains in media containing either heptanedioate or monomethyl heptanedioate were combined. The combined supernatants were analyzed by LC-MS to determine the concentration of heptanedioate and monomethyl heptanedioate. Carboxylate reductase activity on heptanedioate or monomethyl heptanedioate was reflected by consumption of the respective substrate in the medium.

Row | Molecule | activity toward heptanedioyl-ACP in vivo [1] | also measured
1 | SEQ ID NO: 195: Halobacteriovorax marinus thioesterase (protein, listed as Halobacteriovorax marinus, Halobacteriovorax marinus (strain ATCC BAA-682 / DSM 15412 / SJ), Halobacteriovorax marinus thioesterase) MKSPVFKKKYQVSISNVNINKRLGLFGLLGYLQDIATLHAEIAGFGLDEMISSNSFWVLVRQEIRMNKFPKWNDEIEIQTWSRTPQGMYAFREFEFFLNDEKVGSCSTAWMILSGDTRRIKKPDFPIEKINPRLDSLLDYCAERIKVLDNFELVNEIKVRISDLDLNMHVNNTKYTQWVLDSIPIELHKSAKLRNYQINFLKEAHLGDEIDIYRASSAKDESAHDTQFKGIRRSDQSTIFYVNIIADT | displayed considerable activity toward heptanedioyl-ACP | –
2 | SEQ ID NO: 82: Vibrio shilonii AK1 thioesterase (protein, Vibrio shilonii AK1, Vibrio shilonii AK1 thioesterase) MIRQLSYFVLIVISLASFHAKAATLLILGDSLSAGYNMRAEQSWPTMLSDELSSGDEPMKVINGSVSGDTTSNGLAKLPGLLKQHSPDYVLIELGANDGLRGFQPSIIKNNLASLIEMSQQAGSKVLLMQIRIPPNYGKRYASMFEGIYPALAQESGVPLLPFFLEQVIIKPEWMMEDGLHPKPEAQPFIAQFVAESMQPHL | displayed considerable activity toward heptanedioyl-ACP | –
3 | SEQ ID NO: 194: Pseudomonas stutzeri (strain A1501) thioesterase (protein, Pseudomonas stutzeri (strain A1501), Pseudomonas stutzeri (strain A1501) thioesterase) MRRWLKCGALALLCWTQGALAGTVLVVGDSISAAFGLETSQGWVHLLQERLVEGDESWRVVNASISGDTTAGGLARLDPLLEEHTPEVVILELGGNDGLRGQSPVQLKQNLADMIDRSREAGAEVLLLGMRMPPNLGQRYTRAFADAFDSLAQEKSVAYVPFLLEGVGGVAGMMQADGIHPTAEAQSQLLETVWPALEPLL | displayed considerable activity toward heptanedioyl-ACP | –
4 | SEQ ID NO: 190: Bacteroides finegoldii CL09T03C10 thioesterase (protein, Bacteroides finegoldii CL09T03C10, Bacteroides finegoldii CL09T03C10 thioesterase) MSESNKIGTYKFVAEPFHVDFNGRLTMGVLGNHLLNCAGFHASDRGFGIASLNEDNYTWVLSRLAIELDEMPYQYEDFSVQTWVENVYRLFTDRNFAIMNKEGKKIGYARSVWAMISLNTRKPADLLALHGGSIVDYICDEPCPIEKPSRIKVTNTQPLATLTAKYSDIDINGHVNSIRYIEHILDLFPIDLYKTKRIRRFEMAYVAESYFGDELTFFCDEANENEFHVEVKKNGSEVVCRSKVIFE | displayed considerable activity toward heptanedioyl-ACP | –
5 | SEQ ID NO: 189: Sedimenticola thiotaurini thioesterase (protein, listed as Sedimenticola thiotaurini) MKKLFLLLIFAMSNVPAAEPVILVLGDSLSAAYGIERSRGWVSLLQSRLQQAGYPHRVVNASISGDTTAGGLARLPRALEQFQPDILIIELGGNDGLRGLGNRQTRDHLDQMITLARASHSRPLLLGMMLPPNFGKAFTEKFLQIYRDLAEQRNVPLVPFFLAGVADRPEWMQSDGIHPTAEGQPLMLEHVWEQLQPMLEETSVHSDKSLK | displayed considerable activity toward heptanedioyl-ACP | –
6 | SEQ ID NO: 191: Pseudoalteromonas sp. SW0106-04 thioesterase (protein, Pseudoalteromonas sp. SW0106-04, Pseudoalteromonas sp; SW0106-04 thioesterase) MSASILRVFIVLLLVTKPLFAWADNQILVLGDSLSAAYGLKQHQGWVQLLQDTYEQQNTPTTLINASISGETTGGALRRLDAILKEHTPTHVLIELGGNDGLRGFPVTKMKANLHALIDKSREAGAEVALMQIRIPPNYGRRYTELFEQSFVDVAKEKQVTLMPFFVEQVATNGELMQNDNIHPNAEAQPILRDIMKTQISNWLTK | displayed considerable activity toward heptanedioyl-ACP | –
7 | SEQ ID NO: 86: Marine sediment metagenome thioesterase (protein, Description of Unknown: Marine sediment metagenome, Marine sediment metagenome thioesterase) MTVKALTTRLPAPGPQVRYFSALRSAVLCVFLLAAGFCASTSAESDDGVLLVFGDSLSAAYRMDERDGWVALLQQQLREESTALQVVNGSVSGETTAGGLARLPAMLDAHQPDIVMLELGGNDGLRGLPVTSIRQNLERMIQMSQQAGARVILAGIQIPPNYGPRYTAPFYAQYQELADEYGLVLIPFLLEGIADNPALMQDDGIHPTAAAQPMIVDTVWPVLQGVLTATDRP | displayed considerable activity toward heptanedioyl-ACP | –
8 | SEQ ID NO: 85: Ferrimonas balearica thioesterase (protein, Ferrimonas balearica (strain DSM 9799 / CCM 4581 / PAT), Ferrimonas balearica thioesterase) MVRRSLLILMLCLYQPGAWADQPSILILGDSLSASYGMSEAEGWVKKLQQNLPDAQIINASVSGETSGGGLRRLPGLLQQHQPDWVFVELGGNDGLRGFQPTITENNIEQLITLSKASGAQVLLSEVMVPPNYGRRYAERFQQIYHGLAKEHEVELVPFFMTEIATDPNLMQADGIHPNREAQGRIAAFLLPWFEQAIAE | displayed considerable activity toward heptanedioyl-ACP | –
9 | SEQ ID NO: 192: Vibrio mytili thioesterase (protein, listed as Vibrio mytili) MIRLLSLFLFFSLSTLAHANEKLLVLGDSLSAGYQMPIEKSWPSLLSNALLEHDQDVTVINGSISGDTTGNGLARLPQLLDQHTPDFVILELGANDGLRGFPPKLITANLSKMITMIKNSGAKVFMMQIRVPPNYGKRYSDMFYDIYPKLAEHQQVTLLPFFLEHVVTKPEWMMDDGLHPKPEAQPWIAEFVAQELIKHL | displayed considerable activity toward heptanedioyl-ACP | –
10 | SEQ ID NO: 193: Pseudomonas fluorescens thioesterase (protein, listed as Pseudomonas fluorescens) MRVWFLSAGLALMCMAQNAAAGTVLIVGDSISAGFGLDTRLGWVSLLEQRLEQEGFDDKVVNASISGDTSAGGQARLPALLAEHKPDLVILELGGNDGLRGMPPTQLQQNLAAMIDSSRQSGAKVLLLGMQLPPNYGKRYTDAFAEVYGKLADDKKIPLVPFFLDGVGGHPDLMQADGLHPAAGAQGKLLENVWPTLKPLL | displayed considerable activity toward heptanedioyl-ACP | –
11 | SEQ ID NO: 73: Thalassospira xiamenensis M-5 thioesterase (protein, Thalassospira xiamenensis M-5 = DSM 17429, Thalassospira xiamenensis M-5 thioesterase) MTIQWDEIAKPALPANCGWRGTYRVRYSEIGDNGLAMLPALADYMQDAAGWGARILKLAYDDTVDKGMAWVLARMVIHVRRYPGNGEDIIVETWPSGVARRVATRDFRLIDSSGDVIAVAQSFWVMFDLLERRAASWPDWIEERLPKPPGPKLIEPPFRPPFTTDPLPEIDSIKARPSDLDLYGHVNNVRLMQWVLGATGADSKPDFHPESIDIQFRTECRVQERVTVRQKDGFAAITRDGDGVDLVRAHVVPKNRTALA | displayed considerable activity toward heptanedioyl-ACP | impact on monomethyl heptanedioate production ([2]; 146 thioesterases screened): promising; activity toward heptanedioyl-ACP methyl ester in vivo ([2]; top 150 hits screened in vivo): showed activity toward heptanedioyl-ACP methyl ester
12 | SEQ ID NO: 205: Kuraishia capsulata CBS 1993 carboxylate reductase (protein, Kuraishia capsulata CBS 1993, Kuraishia capsulata CBS 1993 carboxylate reductase) MPSLPLPPYRAVFERAEDITRDALPFPPERNQRGIAVPGSVEPGYSAIYRSAATPDFLYDRVSPELDTYYRILKRSFEIFKDEDCVSERPQTGENSWSDKFVPRSYGEVYHDSLNFGSGLKYLLQKNEFRSGTEIPDKDYIVSIFSRNRAKWLVADISCTLFSLPNTALYDTLGPDTSTYILGLTKSPVVVAASDKISKLLDLKEADPAKLKNLIMLVAMDNLEPEVYSDLSRRAYKLNVKLYEWDQVTEAGILFPHEEVPPAPDSIYSLSFTSGTTGPPKGAILLHSGVAAGVAFTSATIDTPKQKAKLLSILPLAHIYERMTMALQLFRGGCLGFPHQPGPEHIVPNLRLFKPNLFSGVPRLFNKFEGVLKAATVHNPNASPAKRALAKRIIEWKMKQQCSKDGERGESILYDKLLNNKLRAALGFDNLYGVVTGSAPISAETIKFLKAALGVSFHQGYGLTETFAGVCVSAGLETDPGSCGVIGIATECRLKDTPELGYTSSDEGGPRGELLLRGSQVFPGYYKNEEETKKALDEDGWYHTGDIARIDSKCRIYVIDRVKNLFKLSQGEYVAPERIENIYLSSCTDFVSQIYVHGDSFSNYLVGIVGVDILGLSAFLKRKHPDLWRQVEGKTPEEILDIISSSRQLKSAILAQMNRNVSSAGLNGYEKLHNLKIGIEPLKVEDEVLTPTLKLKRNNALTKFNTDLKNLYEEGSLIKNEKL | – | substrate preference, heptanedioic acid to 7-oxoheptanoate [3]: preferred acting upon heptanedioic acid to form 7-oxoheptanoate
